Patent US20190167721A1 (FOURTH MILITARY MEDICAL UNIVERSITY XI AN, published 2019)
Each block holds one binder with its values, some of them ahead of it.

Tests used:
glycosylated CEA [1] = molecular target: T1, glycosylated CEA (human, UniProt P06731 35-685, glycosylated (sites and glycans not stated)); test: flow cytometry on CRYPT cells, goat anti-mouse IgG-APC, logistic fit of MFI
T1 construct: whole, on cells; also called glycosylated CEA antigen; MG7
T1 sequence (looked up): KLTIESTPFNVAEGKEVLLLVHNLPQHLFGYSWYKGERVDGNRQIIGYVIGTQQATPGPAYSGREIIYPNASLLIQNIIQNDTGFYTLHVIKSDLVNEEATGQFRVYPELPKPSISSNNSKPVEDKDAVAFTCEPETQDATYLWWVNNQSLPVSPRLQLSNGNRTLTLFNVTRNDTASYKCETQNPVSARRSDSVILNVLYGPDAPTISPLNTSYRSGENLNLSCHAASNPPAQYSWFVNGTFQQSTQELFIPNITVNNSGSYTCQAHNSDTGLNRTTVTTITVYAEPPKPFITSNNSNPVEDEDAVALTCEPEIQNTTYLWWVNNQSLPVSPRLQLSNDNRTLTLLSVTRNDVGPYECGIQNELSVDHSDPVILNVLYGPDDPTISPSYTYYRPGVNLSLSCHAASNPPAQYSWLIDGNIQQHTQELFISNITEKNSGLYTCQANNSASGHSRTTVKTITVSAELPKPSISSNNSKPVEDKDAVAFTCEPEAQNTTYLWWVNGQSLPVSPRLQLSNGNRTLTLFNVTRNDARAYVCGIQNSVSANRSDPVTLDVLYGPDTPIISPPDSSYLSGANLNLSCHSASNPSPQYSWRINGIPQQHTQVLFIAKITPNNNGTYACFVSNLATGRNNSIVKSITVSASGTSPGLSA
Procedure: (§1) The antibodies FM2, FM4, FM5, and FM6 were diluted with PBS buffer containing 1% BSA, and incubated with SW620-CEA or CRYPT cells (final concentrations: 50 μg/ml, 5 μg/ml, 0.5 μg/ml, 0.05 μg/ml, 0.005 μg/ml, 0.0005 μg/ml) for 1 hour at room temperature; the cells were washed twice with PBS buffer containing 1% BSA, and then incubated with Goat Anti Mouse IgG-APC for 1 hour; the cells were washed twice with PBS buffer containing 1% BSA and resuspended in PBS buffer; the APC fluorescence values of the cells were read using BD Accuri C6 FACS.
(§2) Using the median fluorescence value (MFI) as the ordinate and the antibody concentration (μg/ml) as the abscissa, the S-curve was fitted using a logistic equation to calculate the antibody binding EC50, the results are shown in the following table: […]

[2] = molecular target: T2, CEA overexpressed on SW620-CEA cells (CEACAM5, non-glycosylated state) (UniProt P06731 35-685); test: flow cytometry on SW620-CEA cells, goat anti-mouse IgG-APC, logistic fit of MFI
T2 construct: whole, on cells; also called CEACAMS; CEA antigens with a lower degree of glycosylation
T2 sequence (looked up): T1 sequence (looked up)
Procedure: as §1, §2

glycosylated CEA [3] = molecular target: T1, glycosylated CEA; test: ratio of EC50 values from flow cytometry on cells

- EC50 (glycosylated CEA [1]): 0.04 mg/L
- EC50 [2]: 0.2 mg/L
B1: FM5 (scFv, V domains shown)
VH: QVQLKESGPGLVAPSQNLSITCTVSGFSLTSYAINWVRQPPGKGLEWLGIIWTGGGTNYNSALKSRLSISKDNSKSQVFLKMNSLQTDDTARYYCASGVYYFDYWGLGTTLTVSS
VL: DIVMTQSHKFMSTSVGDRVSITCKASQDVTTAVAWYQQKPGQSPKVLIFWASTRHTGVPDRFTGSGSGTDYTLTISSVQAEDLALYYCQQYYRTPRTFGGGTKLEIK
notes: also called antibody FM5; FM5 single-chain antibody

- selectivity (glycosylated CEA on CRYPT against non-glycosylated CEA on SW620-CEA) (glycosylated CEA [3]): > 100 fold
- EC50 (glycosylated CEA [1]): 0.51 mg/L
B2: FM4 (scFv, V domains shown)
VH: EVKLVESGGGLVQPGGSLRLSCSISGFTFTDYYMNWVRQSPGKALEWLGFIRNKVNGDTTEYSASVKGRFTISRDISQSILYLQMNTLRTEDSATYYCARDKGIAYYFDYWGQGTTLTVSS
VL: QIVLSQSPAILFASPGEKVTMTCRASSSVSYIHWYQQKPGSSPKPWIHGTSNLASGVPARFSGSGSGTSYSLTISRMEAEDAATYYCQQWSSNLSTFGGGTKLEIK
notes: also called antibody FM4; FM4 single-chain antibody

- EC50 (glycosylated CEA [1]): 0.02 mg/L
- EC50 [2]: 0.8 mg/L
B3: FM2 (scFv, V domains shown)
VH: DVKLVESGGGLVKPGGSLKLSCAASGFTFSRYTMSWVRQTPEKRLEWVATISNSGSYTYYRDSVKGRFTISRDNAKNTLYLQMSSLKSEDTAMYYCTRGSPWGQGTLVTVSA
VL: DIQMTQSPDSLSASVGETVTITCGASENIYGALNWYQRKQGKSPQLLIYGATKLADGMSSRFSGSGSNRQYSLKISSLHPDDVATYYCQNVLSKPYAFGGGTKLEIK
notes: also called antibody FM2; FM2 single-chain antibody
